B1: STK38L (parent)
chain: NWKETLVFPPEVPISEKAKDLILR
B2: CD69 (parent)
chain: FVAENSSLHPESGQENDATSPHFS

Variants of: B1
Assay: protein stability index of a GFP-peptide fusion (GPS, HEK-293T) (PSI 1-6); higher = more stable
Conditions: c terminus: a fixed tail appended
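Further: lentivirally expressed fusions sorted by FACS into six bins by GFP to DsRed ratio, PSI derived from sequencing read proportions per bin multiplied by bin number.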

Protein stability index of substitutions, site by site:
L23: G 4.47 | F 2.9 | N 4.09 | H 3.78 | Q 4.22 | R 4.19 | K 4.24 | P 3.9 | V 3.27 | Y 2.99 | E 4.15 | C 3.36 | A 3.75 | T 3.77 | I 3.24 | M 2.6 | W 2.12 | S 3.94 | D 4.92
I22: T 4.22 | F 2.79 | D 4.43 | G 3.23 | S 3.89 | M 4.15 | Q 3.88 | L 3.21 | E 4.54 | P 4.36 | V 3.06 | C 3.07 | H 3.68 | A 4.17 | W 3.42 | K 3.66 | N 3.62 | R 4.04 | Y 3.51
L21: F 2.63 | G 3.81 | A 3.35 | H 3.48 | T 4.44 | N 3.56 | C 3.62 | M 3.42 | R 3.62 | E 4.66 | I 3.27 | S 3.72 | P 3.69 | V 3.53 | Y 2.71 | D 3.72 | W 2.58 | Q 3.41
K19: D 3.38 | M 2.19 | C 2.87 | I 2.01 | P 3.17 | W 2.26 | H 2.78 | A 2.69 | F 1.95 | G 2.96 | E 3.77 | S 3.53 | T 3.41 | L 1.49 | R 2.96 | Y 2.29 | Q 2.86 | N 3.07
R24: C 2.16 | G 3.9 | L 2.03 | N 3.96 | Y 1.63 | S 3.31 | I 1.88 | V 1.91 | P 3.43 | T 3.59 | M 2.64 | W 2.11 | Q 2.83 | K 3.6 | D 4.32 | H 3.16 | A 3.09 | E 3.57 | F 2.13
D20: T 2.92 | Y 1.8 | Q 3 | K 2.57 | M 1.94 | P 2.65 | F 2.52 | W 1.92 | N 2.63 | C 2.06 | A 2.92 | I 1.52 | S 2.45 | H 1.9 | R 2.94 | G 2.31 | V 2.23
A18: T 3.41 | P 3.1 | Y 2.45 | S 3.32 | M 2.39 | V 2.72 | N 3.38 | W 2.65 | R 3.69 | Q 3.57

Variants of: B2
Assay: as above
Conditions: c terminus: a fixed tail appended

Protein stability index of substitutions, site by site:
H9: T 3.7 | L 2.96 | A 3.38 | V 3.03 | E 4.49 | C 3.15 | W 1.61 | S 3.32 | R 2.79 | G 3.4 | I 2.9 | D 3.8 | P 3.6 | F 2.95 | Y 2.88 | N 2.8 | Q 3.5 | M 3.08 | K 3.62
S7: H 2.83 | E 4.06 | I 2.39 | D 4.39 | G 3.29 | V 2.73 | N 3.3 | Y 1.93 | P 3.11 | A 3.13 | R 2.13 | F 2.27 | T 3.24 | K 2.51 | M 2.22 | W 3.07 | C 2.46 | Q 3.37 | L 2.67
E4: F 2.18 | L 2.9 | D 2.61 | Q 3.31 | N 2.87 | K 2.89 | H 2.5 | Y 2.39 | W 3.23 | G 3.99 | I 2.42 | V 3.2 | T 2.37 | S 2.44 | M 2.1 | R 2.17 | A 2.85 | C 1.93 | P 3.51
N5: R 2.16 | P 2.56 | K 2.69 | S 2.57 | T 2.77 | C 2.5 | Q 3.22 | G 3.21 | E 3.7 | I 2.16 | D 4.57 | H 2.61 | M 2.45 | A 3.1 | L 2.95 | F 1.94 | W 1.99 | Y 2.87 | V 2.96
F1: M 5.49 | K 5.78 | H 4.98 | V 4.96 | P 5.51 | L 5.13 | Y 3.64 | G 5.41 | D 5.78 | I 5.04 | Q 5.65 | C 5.02 | W 5.2 | N 5.39 | T 5.58 | A 4.81 | E 5.62 | R 5.12 | S 5.4
S6: L 1.5 | V 2.48 | W 2.07 | E 4.05 | G 3.37 | F 2.21 | C 2.46 | I 2.38 | K 2.72 | Y 2.85 | T 3.34 | Q 3.08 | N 2.69 | M 2.55 | P 2.58 | A 2.96 | H 3.01 | R 2.27 | D 4.33
P10: K 2.98 | L 2.9 | R 2.56 | N 3.63 | A 3.06 | H 3.61 | C 2.84 | E 3.54 | T 3.13 | F 2.48 | Q 3.45 | V 3.22 | G 3.29 | D 3.32 | I 3.23 | M 2.46 | W 2.43 | Y 3.15 | S 2.52
A3: F 3.02 | M 3.11 | H 3.03 | C 2.73 | T 3.12 | G 2.98 | I 2.86 | P 2.41 | K 2.95 | N 3.21 | W 2.82 | Y 3.02 | R 2.88 | V 3.43 | Q 3.27 | D 2.95 | E 3.57 | S 2.56 | L 2.95
S12: D 3.25 | C 2.73 | E 3.83 | A 2.99 | F 2.39
E11: D 3.22 | Q 2.48 | R 2.12 | Y 2.22 | P 2.55 | K 2.35 | H 2.36 | S 2.52 | C 1.96 | F 1.82 | M 2.36 | L 1.6 | T 2.84 | W 2.05 | A 2.51 | I 2.39 | N 3.21 | V 2.38 | G 2.46
L8: M 3.06 | H 3.04 | D 3.62 | I 3.24 | V 3.01 | P 3.41 | R 2.49 | E 3.86 | Q 3.62 | Y 2.28 | W 1.72 | K 2.68 | F 2.4 | S 3.75 | N 3.65 | T 3.64 | A 3.41 | C 2.8 | G 3.78
V2: W 4.86 | Y 4.84 | E 5.5 | C 4.82 | I 4.44 | D 5.18 | R 5.36 | T 5.17 | S 5.39 | N 5.25 | F 5.13 | P 5.46 | H 4 | L 5 | A 4.94 | M 4.87 | K 5.4 | G 5.26 | Q 4.86

Reference: the supplement of paper PMC10567573
